This series in a line: self-splicing fitness, log relative to wild type (ln ratio); higher = more splicing; Tetrahymena group I intron in knt gene, E. coli kanamycin selection, DiMSum; sequences stand for … in CUCUCU…GGAGGGAAAAGUUAUCAGGCAUGCACCUGGUAGCUAGUCUUUAAACCAAUAGAUUGCAUCGGUUUAAAAGGCAAGACCGUCAAAUUGCGGGAAAGGGGUCAACAGCCGUUCAGUACCAAGUCUCAGGGGAAACUUUGAGAUGGCCUUGCAAAGGGUAUGGUAAUAAGCUGACGGACAUGGUCCUAACCACGCAGCCAAGUCCUAAGUCAACAGAUCUUCUGUUGAUAUGGAUGCAGUUCACAGACUAAAUGUCGGUCGGGGAAGAUGUAUUCUUCUCAUAAGAUAUAGUCGGACCUCUCCUUAAUGGGAGCUAGCGGAUGAAGUGAUGCAACACUGGAGCCGCUGGGAACUAAUUUGUAUGCGAAAGUAUAUUGAUUAGUUUUGGAGUACUCGUGGUCG
In short, it runs like this: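 Pooled colonies went to amplicon sequencing on an Illumina HiSeq 2500 after six replicate transformations. The plates were LB agar with 100 μg/mL carbenicillin, 50 μM IPTG and 0.2% rhamnose, with or without 25 μg/mL kanamycin, incubated overnight at 37°C or 30°C. The E. coli BL21(DE3) library had all eight P1ex-region intron nucleotides randomised, the intron placed in the knt kanamycin-resistance gene on pET-22b(+). DiMSum fitness is the error-weighted combination of replicate fold changes, kanamycin against none, normalised to wild type.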

± gives the uncertainty stated by the source.

GAUCAGCAAUAUUACGAUGU: the “self-splicing fitness (ln)” value (30 °C) is -0.363 ± 0.062 and the “self-splicing fitness (ln)” value (37 °C) stood at 0.0452 ± 0.077.

On to GAUCAGCAAUAUUACGUGGU, for which the “self-splicing fitness (ln)” value (30 °C) is -4.81 ± 0.27 and the “self-splicing fitness (ln)” value (37 °C) is -2.15 ± 0.13.

With CCGGAGCAAUAUUACGAUAC, for the setting “37 °C”, the “self-splicing fitness (ln)” value was -1.97 ± 0.36.

In the case of GUGGAGCAAUAUUACGAGCA, the “self-splicing fitness (ln)” value by setting is: (30 °C) -2.49 ± 0.34; (37 °C) -1.93 ± 0.39.

ACGCAGCAAUAUUACGGUAU: the “self-splicing fitness (ln)” value (30 °C) was -2.67 ± 0.15 and the “self-splicing fitness (ln)” value (37 °C) was -1.03 ± 0.12.

Turning to GUAAAGCAAUAUUACGUGUU, the “self-splicing fitness (ln)” value by setting is: (30 °C) -2.69 ± 0.098; (37 °C) -0.867 ± 0.11.

As for GAACAGCAAUAUUACGCACU, the “self-splicing fitness (ln)” value was determined as 0.254 ± 0.079 (30 °C) and 0.0329 ± 0.11 (37 °C).

On to UACCAGCAAUAUUACGACGG, for which the “self-splicing fitness (ln)” value reads like this: (30 °C) -0.833 ± 0.06; (37 °C) -0.237 ± 0.094.

For GCCCAGCAAUAUUACGCUCU, the “self-splicing fitness (ln)” value turned out to be 0.00415 ± 0.05 (30 °C) and 0.138 ± 0.066 (37 °C).

Consider GAAAAGCAAUAUUACGUAGC, for which the “self-splicing fitness (ln)” value runs as follows: (30 °C) -2.66 ± 0.15; (37 °C) -1.51 ± 0.15.

Regarding UGUUAGCAAUAUUACGAGGG, the “self-splicing fitness (ln)” value was -3.43 ± 0.26 (30 °C) and -1.84 ± 0.23 (37 °C).

GUCAAGCAAUAUUACGACGG: the “self-splicing fitness (ln)” value by setting is: (30 °C) -4.06 ± 0.37; (37 °C) -1.71 ± 0.34.

Take GUGUAGCAAUAUUACGACUA: the “self-splicing fitness (ln)” value (30 °C) was -0.34 ± 0.11 and the “self-splicing fitness (ln)” value (37 °C) was 0.0605 ± 0.12.

Turning to UAAAAGCAAUAUUACGUGCC, the “self-splicing fitness (ln)” value (30 °C) was -2.01 ± 0.092 and the “self-splicing fitness (ln)” value (37 °C) was -1.26 ± 0.12.

In the case of AUAAAGCAAUAUUACGGUUC, the “self-splicing fitness (ln)” value runs as follows: (30 °C) -2.17 ± 0.088; (37 °C) -0.743 ± 0.1.

As for UCCGAGCAAUAUUACGGCUA, the “self-splicing fitness (ln)” value by setting is: (30 °C) -0.436 ± 0.096; (37 °C) -0.18 ± 0.1.

On to ACUAAGCAAUAUUACGAACG, for which the “self-splicing fitness (ln)” value runs as follows: (30 °C) -1.1 ± 0.1; (37 °C) -0.438 ± 0.15.

On to AACUAGCAAUAUUACGUAAG, for which the “self-splicing fitness (ln)” value is, setting by setting: (30 °C) -1.22 ± 0.084; (37 °C) -1.65 ± 0.11.

With CAGCAGCAAUAUUACGGAAG, the “self-splicing fitness (ln)” value (30 °C) is -0.307 ± 0.054 and the “self-splicing fitness (ln)” value (37 °C) is -0.29 ± 0.068.

In the case of AGUAAGCAAUAUUACGGUCU, the “self-splicing fitness (ln)” value (30 °C) was -0.432 ± 0.093 and the “self-splicing fitness (ln)” value (37 °C) is -0.488 ± 0.11.

UCCCAGCAAUAUUACGGCUG: the “self-splicing fitness (ln)” value (37 °C) is -1.42 ± 0.48.

Turning to UUGAAGCAAUAUUACGAGAC, the “self-splicing fitness (ln)” value runs as follows: (30 °C) -3.37 ± 0.17; (37 °C) -2.5 ± 0.19.

With GUAUAGCAAUAUUACGGUGA, the “self-splicing fitness (ln)” value reads like this: (30 °C) -2.53 ± 0.25; (37 °C) -0.645 ± 0.18.

Turning to UCCCAGCAAUAUUACGUCUG, the “self-splicing fitness (ln)” value reads like this: (30 °C) -3.05 ± 0.17; (37 °C) -2.85 ± 0.31.

On to CCAUAGCAAUAUUACGGAGU, for which the “self-splicing fitness (ln)” value (30 °C) was -4 ± 0.29 and the “self-splicing fitness (ln)” value (37 °C) was -2.42 ± 0.17.

ACCGAGCAAUAUUACGCUUA: the “self-splicing fitness (ln)” value (30 °C) is -1.56 ± 0.14 and the “self-splicing fitness (ln)” value (37 °C) is -1.63 ± 0.17.

With AAACAGCAAUAUUACGUAUG, the “self-splicing fitness (ln)” value is -2.03 ± 0.094 (30 °C) and -1.31 ± 0.11 (37 °C).

With CCCAAGCAAUAUUACGUAUG, the “self-splicing fitness (ln)” value is -4.01 ± 0.15 (30 °C) and -1.47 ± 0.11 (37 °C).

In the case of UACAAGCAAUAUUACGAUUG, the “self-splicing fitness (ln)” value is, setting by setting: (30 °C) -3.18 ± 0.17; (37 °C) -1.8 ± 0.17.

Take GCCGAGCAAUAUUACGUCCG: the “self-splicing fitness (ln)” value runs as follows: (30 °C) -3.69 ± 0.28; (37 °C) -2.87 ± 0.29.

With ACUCAGCAAUAUUACGUCUA, the “self-splicing fitness (ln)” value is -0.845 ± 0.081 (30 °C) and -0.152 ± 0.076 (37 °C).

For the sequence AAAGAGCAAUAUUACGGAUU, the “self-splicing fitness (ln)” value is, setting by setting: (30 °C) -0.754 ± 0.18; (37 °C) -1.45 ± 0.17.

Turning to UGAAAGCAAUAUUACGGAUA, the “self-splicing fitness (ln)” value reads like this: (30 °C) -1.56 ± 0.13; (37 °C) -1.1 ± 0.14.

As for GUUGAGCAAUAUUACGGACU, the “self-splicing fitness (ln)” value (30 °C) is -3.15 ± 0.24 and the “self-splicing fitness (ln)” value (37 °C) was -3.49 ± 0.34.

With AUACAGCAAUAUUACGGGAA, the “self-splicing fitness (ln)” value (30 °C) is -2.72 ± 0.17 and the “self-splicing fitness (ln)” value (37 °C) is -1.51 ± 0.13.

Take GGGCAGCAAUAUUACGACGC: the “self-splicing fitness (ln)” value is, setting by setting: (30 °C) 0.36 ± 0.13; (37 °C) -0.0449 ± 0.18.

With GGUGAGCAAUAUUACGAGUG, the “self-splicing fitness (ln)” value reads like this: (30 °C) -2.19 ± 0.41; (37 °C) -2.55 ± 0.27.

Turning to GGCUAGCAAUAUUACGAGUU, the “self-splicing fitness (ln)” value (30 °C) was -1.95 ± 0.11 and the “self-splicing fitness (ln)” value (37 °C) is -0.414 ± 0.11.

(Values after the supplement of paper PMC7877785.)
